Laboratory results: publication PMC6377682, “ASPP proteins discriminate between PP1 catalytic subunits through their SH3 domain and the PP1 C-tail” (Nature Communications, 2019)

B1: human ASPP2^920-1120 (domain or fragment, UniProt Q13625 920-1120, looked up)
chain: MRVKFNPLALLLDSSLEGEFDLVQRIIYEVDDPSLPNDEGITALHNAVCAGHTEIVKFLVQFGVNVNAADSDGWTPLHCAASCNNVQVCKFLVESGAAVFAMTYSDMQTAADKCEEMEEGYTQCSQFLYGVQEKMGIMNKGVIYALWDYEPQNDDELPMKEGDCMTIIHREDEDEIEWWWARLNDKEGYVPRNLLGLYPRI
notes: ASPP2, human, residues 920-1120 (RVxF motif, ankyrin repeats, SH3 domain); pGEX-6P2 construct; source: E. coli Rosetta (DE3) pLysS, purified (glutathione-Sepharose, 3C cleavage, SEC); for the crystal co-expressed with PP1α^7-330 in E. coli BL21 (DE3)
B5: ASPP2^D1091G/E1092P (domain or fragment, human, UniProt Q13625 920-1120, looked up)
chain: MRVKFNPLALLLDSSLEGEFDLVQRIIYEVDDPSLPNDEGITALHNAVCAGHTEIVKFLVQFGVNVNAADSDGWTPLHCAASCNNVQVCKFLVESGAAVFAMTYSDMQTAADKCEEMEEGYTQCSQFLYGVQEKMGIMNKGVIYALWDYEPQNDDELPMKEGDCMTIIHREGPDEIEWWWARLNDKEGYVPRNLLGLYPRI
notes: ASPP2, human, residues 920-1120 with n-Src loop mutations; also called double mutant mimicking the human iASPP n-Src loop
B11: human iASPP^621-828 (domain or fragment, UniProt Q8WUF5 621-828, looked up)
chain: RRARLNPLVLLLDAALTGELEVVQQAVKEMNDPSQPNEEGITALHNAICGANYSIVDFLITAGANVNSPDSHGWTPLHCAASCNDTVICMALVQHGAAIFATTLSDGATAFEKCDPYREGYADCATYLADVEQSMGLMNSGAVYALWDYSAEFGDELSFREGESVTVLRRDGPEETDWWWAALHGQEGYVPRNYFGLFPRVKPQRSKV
notes: the protein preparation paragraph prints iASPP^608-828 in pGEX-6P2

What was measured:
Conditions in all cases: both partners purified
human PP1α^7-330 [1] = target: T1, human PP1α^7-330 (human, UniProt P62136 7-330); test: BLI; HIS tagged PP1α, PP1β or PP1γ1 (50 μg/ml) immobilised on Ni-NTA biosensors, ASPP in solution in kinetics buffer, 25 °C, 1000 rpm; global fit 1:1 model; apparent KD
T1 construct: PP1 catalytic subunit alpha, human, residues 7-330; His6 tag kept for ITC and BLI (captured on Ni-NTA sensors); also called full-length PP1α (as the text calls it); source: for the crystal co-expressed with ASPP2^920-1120 in E. coli BL21 (DE3), purified (Ni-NTA, glutathione-Sepharose, SEC)

human PP1γ1^7-323 = target: T2, human PP1γ1^7-323 (human, UniProt P36873 7-323); test: as above
T2 construct: source: bacterial culture with GroEL/GroES chaperone; purification for BLI not described

human PP1β^6-327 = target: T3, human PP1β^6-327 (human, UniProt P62140 6-327); test: as above
T3 construct: PP1 catalytic subunit beta, human, residues 6-327; source: bacterial culture with GroEL/GroES chaperone; purification for BLI not described

human PP1α^7-330 [2] = target: T1, human PP1α^7-330; test: ITC; ASPP2 (25 μM) titrated into His6-tagged PP1 (3–4 μM), 25 °C; 20 mM Tris pH 8, 500 mM NaCl, 0.5 mM TCEP, 1 mM MnCl2
human ASPP2^920-1120 = target: B1; test: ITC; PP1 peptides (350–550 μM) titrated into ASPP2^920-1120 (40 μM), 20 °C; 25 mM Tris pH 8.0, 200 mM NaCl, 0.5 mM TCEP; single binding site model; ASPP2 mutants and iASPP in place of ASPP2 for Fig. 6e
ASPP2^D1091G/E1092P = target: B5; test: as above
human iASPP^621-828 = target: B11; test: as above

B1 was tested, and the Kd (human PP1α^7-330 [1]) was 13.6 nM, the “half-life of the complex” value (human PP1α^7-330 [1]) was 0.517 min and the “fold lower affinity than for PP1α (13.6 nM)” value (human PP1γ1^7-323) was 14 fold. For the same binder, the “fold lower affinity than for PP1α (13.6 nM)” value (human PP1β^6-327) was 13 fold and the Kd (human PP1α^7-330 [2]) was 6.1 nM.

B2: ASPP2^E1090K/D1093S (domain or fragment, human, UniProt Q13625 920-1120, looked up)
chain: MRVKFNPLALLLDSSLEGEFDLVQRIIYEVDDPSLPNDEGITALHNAVCAGHTEIVKFLVQFGVNVNAADSDGWTPLHCAASCNNVQVCKFLVESGAAVFAMTYSDMQTAADKCEEMEEGYTQCSQFLYGVQEKMGIMNKGVIYALWDYEPQNDDELPMKEGDCMTIIHRKDESEIEWWWARLNDKEGYVPRNLLGLYPRI
notes: ASPP2, human, residues 920-1120 with n-Src loop mutations; also called double ASPP2 mutant mimicking the ASPP1 n-Src loop
B2: binds (human PP1α^7-330 [1]).

B3: ASPP2^D1093S (domain or fragment, human, UniProt Q13625 920-1120, looked up)
chain: MRVKFNPLALLLDSSLEGEFDLVQRIIYEVDDPSLPNDEGITALHNAVCAGHTEIVKFLVQFGVNVNAADSDGWTPLHCAASCNNVQVCKFLVESGAAVFAMTYSDMQTAADKCEEMEEGYTQCSQFLYGVQEKMGIMNKGVIYALWDYEPQNDDELPMKEGDCMTIIHREDESEIEWWWARLNDKEGYVPRNLLGLYPRI
notes: ASPP2, human, residues 920-1120 with an n-Src loop mutation; also called single ASPP2 mutant mimicking the ASPP1 n-Src loop
B3: binds (human PP1α^7-330 [1]).

B4: ASPP2^D1091K/E1092V/E1094K (recombinant fragment) (domain or fragment, human, UniProt Q13625 920-1120, looked up)
chain: MRVKFNPLALLLDSSLEGEFDLVQRIIYEVDDPSLPNDEGITALHNAVCAGHTEIVKFLVQFGVNVNAADSDGWTPLHCAASCNNVQVCKFLVESGAAVFAMTYSDMQTAADKCEEMEEGYTQCSQFLYGVQEKMGIMNKGVIYALWDYEPQNDDELPMKEGDCMTIIHREKVDKIEWWWARLNDKEGYVPRNLLGLYPRI
notes: ASPP2, human, residues 920-1120 with n-Src loop mutations; also called ASPP2^KVK; triple mutant mimicking the C. elegans iASPP n-Src loop
A Kd (human PP1α^7-330 [1]) of 8200 nM was found for B4 in this work.

B5: binds (human PP1α^7-330 [1]).

B6: PP1α^317-330 peptide (peptide)
peptide: RPITPPRNSAKAKK
notes: PP1α, human, residues 324-330; source: synthetic peptide (LRI peptide synthesis core facility)
A Kd (human ASPP2^920-1120) of 270 nM was found for B6 in this work.

B7: PP1β^297-327 C-tail peptide (peptide, UniProt P62140 297-327, looked up)
peptide: PSEKKAKYQYGGLNSGRPVTPPRTANPPKKR
notes: PP1 catalytic subunit beta, human, residues 297-327; source: synthetic peptide (LRI peptide synthesis core facility)
With B7 the “fold lower affinity than PP1α^301-330 (143 nM)” value (human ASPP2^920-1120) was 7 fold.

B8: PP1α^317-323 core PPII motif peptide (peptide)
peptide: RPITPPR
notes: source: synthetic peptide (LRI peptide synthesis core facility)
A Kd (human ASPP2^920-1120) of 5650 nM was found for B8 in this work.

B9: human ASPP1^882-1090 (domain or fragment, UniProt Q96KQ4 882-1090, looked up)
chain: LRVRFNPLALLLDASLEGEFDLVQRIIYEVEDPSKPNDEGITPLHNAVCAGHHHIVKFLLDFGVNVNAADSDGWTPLHCAASCNSVHLCKQLVESGAAIFASTISDIETAADKCEEMEEGYIQCSQFLYGVQEKLGVMNKGVAYALWDYEAQNSDELSFHEGDALTILRRKDESETEWWWARLGDREGYVPKNLLGLYPRIKPRQRTLA
notes: ASPP1, human, residues 882-1090; source: pGEX-6P2 construct; expression and purification described only for ASPP2
B9: binds (human PP1α^7-330 [1]); binds (human PP1γ1^7-323); binds (human PP1β^6-327).

B10: ASPP1^K1052E/S1055D (domain or fragment, human, UniProt Q96KQ4 882-1090, looked up)
chain: LRVRFNPLALLLDASLEGEFDLVQRIIYEVEDPSKPNDEGITPLHNAVCAGHHHIVKFLLDFGVNVNAADSDGWTPLHCAASCNSVHLCKQLVESGAAIFASTISDIETAADKCEEMEEGYIQCSQFLYGVQEKLGVMNKGVAYALWDYEAQNSDELSFHEGDALTILRREDEDETEWWWARLGDREGYVPKNLLGLYPRIKPRQRTLA
notes: ASPP1, human, residues 882-1090 with n-Src loop residues 1 and 4 changed to the ASPP2 residues
B10: binds (human PP1α^7-330 [1]).

In the case of B11, the Kd (human PP1α^7-330 [1]) is reported as 2.6 nM, the “fold lower koff than ASPP2 on PP1α” value (human PP1α^7-330 [1]) is reported as 110 fold and the “fold lower kon than ASPP2 on PP1α” value (human PP1α^7-330 [1]) is reported as 7 fold. The “half-life of the complex” value (human PP1α^7-330 [1]) was 58 min and the “fold preference for PP1α and PP1β over PP1γ1” value (human PP1γ1^7-323) was 2 fold.

B12: PP1γ2^297-324 C-tail peptide (peptide, UniProt P36873-2 297-324, looked up)
peptide: KPAEKKKPNATRPVTPPRVASGLNPSIQ
notes: PP1 catalytic subunit gamma, testis-specific isoform γ2, human, residues 297-324; source: synthetic peptide (LRI peptide synthesis core facility)
For B12, the “fold lower affinity than PP1α^301-330 (143 nM)” value (human ASPP2^920-1120) was 15 fold.

B13: PP1γ1^298-323 C-tail peptide (peptide, UniProt P36873 298-323, looked up)
peptide: PAEKKKPNATRPVTPPRGMITKQAKK
notes: as for B8
B13 was tested, and the “fold lower affinity than PP1α^301-330 (143 nM)” value (human ASPP2^920-1120) was 5 fold.

B14: PP1α^301-330 C-tail peptide (peptide, UniProt P62136 301-330, looked up)
peptide: KNKGKYGQFSGLNPGGRPITPPRNSAKAKK
notes: also called PP1α C-tail; source: synthetic peptide (LRI peptide synthesis core facility)
With B14 the Kd (human ASPP2^920-1120) was 143 nM, the binding result (ASPP2^D1091G/E1092P) was “binds” and the Kd (human iASPP^621-828) was 395 nM.

B15: PP1α^301-330 K327A peptide (peptide, UniProt P62136 301-330, looked up)
peptide: KNKGKYGQFSGLNPGGRPITPPRNSAAAKK
notes: also called PP1α^K327 to alanine; source: synthetic peptide (LRI peptide synthesis core facility)
In the case of B15, the “fold decrease in affinity against PP1α^301-330” value (human ASPP2^920-1120) is reported as 4 fold.

B16: PP1α^301-330 3KA peptide (peptide, UniProt P62136 301-330, looked up)
peptide: KNKGKYGQFSGLNPGGRPITPPRNSAAAAA
notes: also called PP1α 3KA; source: synthetic peptide (LRI peptide synthesis core facility)
A Kd (human ASPP2^920-1120) of 1900 nM and a Kd (human iASPP^621-828) of 690 nM were found for B16 in this work.

B17: PP1α^301-330 K329A peptide (peptide, UniProt P62136 301-330, looked up)
peptide: KNKGKYGQFSGLNPGGRPITPPRNSAKAAK
notes: as for B8
B17: binds (human ASPP2^920-1120).

B18: PP1α^301-330 K330A peptide (peptide, UniProt P62136 301-330, looked up)
peptide: KNKGKYGQFSGLNPGGRPITPPRNSAKAKA
notes: as for B8
B18: binds (human ASPP2^920-1120).
